B1: PALS1 PSG (PDZ, SH3 and GK domains; residues 236–675 with a deletion between 411–460) (domain or fragment, human, UniProt Q8N3R9 236-675, looked up)
chain: PITDERVYESIGQYGGETVKIVRIEKARDIPLGATVRNEMDSVIISRIVKGGAAEKSGLLHEGDEVLEINGIEIRGKDVNEVFDLLSDMHGTLTFVLIPSQQIKPPPAKETVIHVKAHFDYDPSDDPYVPCRELGLSFQKGDILHVISQEDPNWWQAYREGDEDNQPLAGLVPGKEEILTYEEMSLYHQPANRKRPIILIGPQNCGQNELRQRLMNKEKDRFASAVPHTTRSRRDQEVAGRDYHFVSRQAFEADIAAGKFIEHGEFEKNLYGTSIDSVRQVINSGKICLLSLRTQSLKTLRNSDLKPYIIFIAPPSQERLRALLAKEGKNPKPEELREIIEKTREMEQNNGHYFDTAIVNSDLDKAYQELLRLINKLDTEPQWVPSTWLR
modifications: covalently labeled with dye NT647 (in the MST measurement only)
notes: PALS1, human cell junction protein; PDZ, SH3 and GK domains (PSG), residues 236–675, without the loop between the SH3 and GK domains (deletion between 411–460); codon-optimised synthetic gene in pET16-b; also called PASL1–PSG domains; source: E. coli BL21 (DE3) pLysS, purified (Ni-NTA, TEV cleavage, second Ni-NTA, SEC); not shown: 10x His, N-terminal, cleaved

Assays:
[1] = biological target: the molecule itself; assay: SEC; purified PSG on a TSKgel G3000SW column in 25 mM Tris pH 7.5, 100 mM NaCl, 1 mM TCEP
[2] = biological target: B1; assay: MST; […]; 50 mM Tris pH 7.5, 100 mM NaCl, 1 mM DTT, 1 mM EDTA, 0.05% Tween 20; 10 min at room temperature; […]; conditions: both partners purified

Row | Binder | stoichiometry N [1] | Kd [2]
1 | B1 | 2 | 
2 | VYSRVKNLNSSRVPDLLV (SARS-CoV-2 envelope (E) protein, 75 residues; also called E C-terminal peptide) [SARS-CoV-2 envelope (E) protein C-terminal 18-amino acid peptide (Ec18)] |  | 11.2 µM

— publication PMC8187709, “Structural basis for SARS-CoV-2 envelope protein recognition of human cell junction protein PALS1” (Nature Communications, 2021)
